Measured values as given in US20250277023A1.

Biological target: CHO-PD-L1 (UniProt Q9NZQ7)
Assay: FACS binding; Fig. 23

Chain of CHO-PD-L1 (Q9NZQ7 19-290): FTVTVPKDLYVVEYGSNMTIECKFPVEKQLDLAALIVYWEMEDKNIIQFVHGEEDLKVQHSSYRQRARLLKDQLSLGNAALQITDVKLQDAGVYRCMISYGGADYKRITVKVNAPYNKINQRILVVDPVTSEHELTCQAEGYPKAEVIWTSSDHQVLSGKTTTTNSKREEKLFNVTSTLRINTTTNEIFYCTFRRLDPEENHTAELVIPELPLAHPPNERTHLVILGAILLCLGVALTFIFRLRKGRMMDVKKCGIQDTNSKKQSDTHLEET

EC50: 0.494 nM
Substance: R0514(avelumab-mIgG2a)
